The values that follow come from article PMC10551642, “Functional plasticity in chromosome–microtubule coupling on the evolutionary time scale” (Life Science Alliance, 2023).

This data set concerns the molecule itself. In words: negative stain electron microscopy; Dam1 complex-MT reaction mix adsorbed on glow-discharged grids, washed with 25 mM HEPES pH 7.4, 500 mM NaCl, 1 mM EDTA, stained with 0.7% uranyl formate; rings of the complex around MTs.

B1: S. cerevisiae Dam1 complex containing Dad2-FL (DASH^WT) (complex)
chain 1: MMASTSNDEEKLISTTDKYFIEQRNIVLQEINETMNSILNGLNGLNISLESSIAVGREFQSVSDLWKTLYDGLESLSDEAPIDEQPTLSQSKTK
chain 2: MDSIDEQIAIKRKELQSLQKITSLTDGLKIQLTELNEQIKEMGMNADSVAQLMNNWDSIINNISQASLGLLQYAEGDYEIGPWKDSKKKESEQSNETGLEAQENDKNDEDNDEDEDLVPLPETMVRIRVDGNE
chain 3: MEHNLSPLQQEVLDKYKQLSLDLKALDETIKELNYSQHRQQHSQQETVSPDEILQEMRDIEVKIGLVGTLLKGSVYSLILQRKQEQESLGSNSK
chain 4: MENPHEQVQANILSRIIGNVKRLNESVAILNQELVTINNRNKNLEIMGAICDNYHSSVQFNLEATNNKKPPL
chain 5: MSEDKAKLGTTRSATEYRLSIGSAPTSRRSSMGESSSLMKFADQEGLTSSVGEYNENTIQQLLLPKIRELSDSIITLDSNFTRLNFIHESLADLNESLGSLLYGIMSNSWCVEFSQAPHDIQDDLIAIKQLKSLEDEKNNLVMELSNMERGIKRKKDEQGENDLAKASQNKQFNQPLFPSSQVRKYRSYDNRDKRKPSKIGNNLQVENEEDYEDDTSSEASFVLNPTNIGMSKSSQGHVTKTTRLNNNTNSKLRRKSILHTIRNSIASGADLPIENDNVVNLGDLHPNNRISLGSGAARVVNGPVTKNRNSMFSGRAERKPTESRHSVAKKTEKKINTRPPFR
chain 6: MSEQSQLDDSTIDKLIPQIFNEMRSNLNNTTNKFPKSTGGGASDNISANSNSIRSFNSITTQSLLKESESLDKITAMIKNVTAALKNNLPVYVNQVHEVCKSTNSILDSWINIHSQAGYIHKLMSDQTYLKLINDRLHNENVNTNDEDGSTLHNVIALKKKEILDLRQKLENRKGEKDAAPAKPPNQGLNPRYGVQSGRRPVPSAGISNNGRVRKTHVPASKRPSGIPRVTNRWTKPTASSSRKMFR
chain 7: MDSASKEETLEKLDQEITVNLQKIDSNLSFCFHKITQDIIPHVATYSEICERIMDSTEWLGTMFQETGLVNLQANAAAPVGNAPVKSLVSNNVGIFPTSAEEASRQSQTDNGPNEADSAVHVNRDVHSMFNNDSIDDFHTANITSTGQILKLPDSSDEDTGSEAVPSREQTDLTGEGHGGADDEQDESTIQRQSRKRKISLLLQQQYGSSSSMVPSPIVPNKMRKQLAHEEHINNDGDNDDENSNNIESSPLKQGHHHPKGQADDNNEGPDEEESTKEVPKPGTIIHFSTNR
chain 8: MNANKQRQYNQLAHELRELQTNLQETTKQLDIMSKQCNENLVGQLGKVHGSWLIGSYIYYMEQMLGKTQ
chain 9: MTDALEQSVLALEGTVSVLKDSVESLKCANEPSTNLASTMLQTKRVFRLVPEYDVERSKLDLIEEVEPLVRTLGDKLRKSMGRMQRELDTLQQTYELNDLRLKKNISMDDDDALNSPDMGQEYEGRDADDVVMMASSTNEELEELKKLKEKKKQLENKLEILKQK
chain 10: MGESLDRCIDDINRAVDSMSTLYFKPPGIFHNAILQGASNKASIRKDITRLIKDCNHDEAYLLFKVNPEKQSVSRRDGKEGVFDYVIKRDTDMKRNRRLGRPGEKPIIHVPKEVYLNKDRLDLNNKRRRTATTSGGGLNGFIFDTDLIGSSVISNSSSGTFKALSAVFKDDPQIQRLLYALENGSVLMEEESNNQRRKTIFVEDFPTDLILKVMAEVTDLWPLTEFKQDYDQLYHNYEQLSSKLRFIKKEVLLQDDRLKTMSQYHPSSSHDVAKIIRKEKDEIRRLEMEIANLQE
notes: Dad1, S. cerevisiae, subunit of the Dam1 (DASH) complex; Dad2, S. cerevisiae, subunit of the Dam1 (DASH) complex; Dad2-FL; Dad3, S. cerevisiae, subunit of the Dam1 (DASH) complex; Dad4, S. cerevisiae, subunit of the Dam1 (DASH) complex; Dam1, S. cerevisiae, subunit of the Dam1 (DASH) complex; Duo1, S. cerevisiae, subunit of the Dam1 (DASH) complex; Ask1, S. cerevisiae, subunit of the Dam1 (DASH) …
With B1, the binding result is reported as “binds”.
